Laboratory results: US20240350630A1

Assays:
[1] = target: recombinant human BCMA (Acro Biosystems) (human) (UniProt Q02223); assay: SPR, scFv-Fc captured by anti-human IgG Fc on a CM5 chip, BCMA as analyte, global fit
[2] = target: recombinant human BCMA (Acro Biosystems) (human) (UniProt Q02223); assay: SPR: scFv-Fc captured on an anti-human IgG Fc CM5 chip (sheet: ligand 20nM), recombinant human BCMA as analyte, 1:1 Binding model, 25 C
[3] = target: rBCMA conjugated with AF647 (UniProt Q02223); assay: flow cytometry of primary T cells transduced with the CAR, stained with labelled recombinant BCMA (sheet: rBCMA-APC, APC-A; text: BCMA-AF647 at 1 ug/ml); untransduced T cells (UT) give 0.61 in the same gate

Binder | Kd [1] [nM] | Kd [2] [nM] | koff [2] [s⁻¹] | kon [2] [M⁻¹ s⁻¹] | % BCMA CAR+ cells [3] [%]
L15 scFv-Fc (Fc fusion, not shown: a dimerising Fc or GST; small tags and cut ends) scFv: EVQLVESGGGLVKPGGSLRLSCAASGFTFSSYSMNWVRQAPGKGLEWVSSISGQSNYIYYADSVKGRFTISRDNAKNSLYLQMNSLRAEDTAVYYCARGGNYFVEYFQYWGQGTLVTVSSGSGGGGSGGGGSGGGGSGGGGSEIVLTQSPGTLSLSPGERATLSCRASQYISSNNLAWYQQKPGQAPRLLIYGASNRATGIPDRFSGSGSGTDFTLTISRLEPEDFAVYYCQQYADSPITFGQGTKLEIK | 0.37 | 0.371 | 0.000673 | 1.81e+06 | 
7A8.11 scFv-Fc (Fc fusion, not shown: a dimerising Fc or GST; small tags and cut ends) scFv: EVQLVESGGGLVQPGGSLRLSCEASGFTFSSFWMNWVRQAPGKGLEWVANIKEDGSEKYYVDSVKGRFTISRDNAKNSLYLQMNSLRVEDTAVYYCARALDYYGMDVWGQGTTVTVSSGGGGSGGGGSGGGGSGGGGSYIVMTQTPLSLPVTPGEPASISCRSSQSLLDSDDGNTYLDWYLQKPGQSPQLLIYTLSYRASGVPDRFSGSGSGTDFTLKISRVEAEDVGVYYCMQRIEFPSYTFGQGTKLEIK | 0.44 | 0.355 | 0.00486 | 1.37e+07 | 
15B2 (protein, part only; not given: hinge, transmembrane and signalling domains, part only) CAR chain, part: EVQLVESGGGLVKPGGSLRLSCAASGFTFRSYSMNWVRQAPGKGLEWVSSISGSSNYIYYADSVKGRFTISRDNAKNSLYLQMNSLRAEDTAVYYCARGGNYYVEYFQYWGQGTLVTVSSGGGGSGGGGSGGGGSGGGGSEIVLTQSPGTLSLSPGERATLSCRASQYISSNYLAWYQQKPGQAPRLLIYGASNRATGIPDRFSGSGSGTDFTLTISRLEPEDFAVYYCQQYGSSPITFGQGTKLEIK |  |  |  |  | 99.6
